This is an account of results in patent US20200048342A1 (INSERM, published 2020).

The target of test [1] is T1, Biotinylated NOTCH3 657-848 (human, UniProt Q9UM47 657-848, biotinylated (site not stated)).
T1 construct: also called human NOTCH3 (Octet analysis)
T1 sequence: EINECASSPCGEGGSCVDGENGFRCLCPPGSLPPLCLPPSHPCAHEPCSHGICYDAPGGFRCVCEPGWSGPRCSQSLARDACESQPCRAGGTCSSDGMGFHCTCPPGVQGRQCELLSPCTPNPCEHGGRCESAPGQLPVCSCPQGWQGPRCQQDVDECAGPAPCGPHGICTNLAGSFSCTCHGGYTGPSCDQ
Put plainly: Octet RED (BLI), biotinylated NOTCH3 657-848 on streptavidin tips, 5E1 at 333 nM to 3.3 nM; human NOTCH3 (657-848), Octet. The method, then:
FIGS. 1A-1B show 5E1 binding to human NOTCH3 using OCTET analysis. (A) Kinetic analysis was performed using the Octet RED technology from ForteBio according to the manufactures instruction. Biotinylated NOTCH3 657-848 was immobilized on streptavidin tips at a level of approximately 3 RU each. (B) Subsequent association and dissociation of 5E1 antibody was analyzed at concentrations in the range from 333 nM to 3.3 nM. Data analysis was subsequently done using the ForteBio Data Analysis 7.0 software (Example 3).
Kinetic analysis was performed using the Octet RED technology from ForteBio according to the manufactures instruction. Biotinylated NOTCH3 657-848 was immobilized on streptavidin tips at a level of approximately 3 RU each. Subsequent association and dissociation of 5E1 antibody was analyzed at concentrations in the range from 333 nM to 3,3 nM. Data analysis was subsequently done using the ForteBio Data Analysis 7.0 software (FIG. 1).

Test [2] addresses vascular Notch3ECD deposits of TgPAC-Notch3R169C mice. Put plainly: in vivo target engagement, co-immunolabelling with Alexa 488-conjugated 5E1 for total Notch3ECD deposits, 2 months old TgPAC-Notch3R169C mice.

B1: 5E1 monoclonal antibody (isotype IgG1) (antibody, V domains shown)
VH: EIQLQQSGTVLARPGASVKMSCKASGYTFTSYWMHWVKQRPGQGLEWIGAIYPGNGDTSYNRKFNGKAKLTAVTSTSTAYMEFSSLTNEDSAVYFCTRDYGSSYDYVMDYWGQGTSVTVSS
VL: DIQMTQSPSSLSASLGERVSLTCRASQDIGSSLNWLQQEPDGTIKRLIYATSSLDSGVPKRFSGSRSGSDYSLTISRLESEDFVDYYCLQYISSPLTFGAGTKLELK
notes: Murine monoclonal IgG1 from a hybridoma; also called 5E1 antibody; 5E1 anti-Notch3
B1 showed a dissociation constant Kd in test [1] of 55 nM. Also, the percentage of target engagement in test [2] stood at 100%.
